Experimental data reported in PMC4300205, “Human Cerberus Prevents Nodal-Receptor Binding, Inhibits Nodal Signaling, and Suppresses Nodal-Mediated Phenotypes” (PLoS ONE, 2015).

B1: recombinant human Nodal (ligand, UniProt Q96S42 238-347, looked up)
chain: HHLPDRSQLCRKVKFQVDFNLIGWGSWIIYPKQYNAYRCEGECPNPVGEEFHPTNHAYIQSLLKRYQPHRVPSTCCAPVKTKPLSMLYVDNGRVLLDHHKDMIVEECGCL
notes: Nodal, human, recombinant (RnD Systems); source: bought: RnD Systems

Assays:
Assay in all cases: SPR; Biacore 2000; 200-300 RU of Fc fusion captured by anti-human IgG (Fc) antibody on a CM5 chip; concentration series of ligand injected at 50 ul/min; 25 C; HBS-EPS (0.01 M HEPES, 0.5 M NaCl, 3 mM EDTA, 0.005% Tween 20, pH 7.4); 1:1 Langmuir model with mass transport; Kd = kd/ka
[1] = target: T1, Human Cerberus-hIgg-Fc (human), O95813; settings: remark: other sources report otherwise
T1 chain: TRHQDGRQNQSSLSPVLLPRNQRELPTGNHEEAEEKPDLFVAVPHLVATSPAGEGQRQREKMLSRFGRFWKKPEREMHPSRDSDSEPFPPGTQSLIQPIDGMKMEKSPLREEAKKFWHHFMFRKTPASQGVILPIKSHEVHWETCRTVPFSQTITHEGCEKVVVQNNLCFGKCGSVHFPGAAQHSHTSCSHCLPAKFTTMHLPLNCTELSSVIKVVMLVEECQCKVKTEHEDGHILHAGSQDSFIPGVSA

[2] = target: B1; settings: both partners purified
[3] = target: T2, Recombinant Activin A (human, UniProt P08476 311-426); settings: both partners purified
T2 construct: Activin A (inhibin beta A chain), recombinant; source: bought: R&D Biosystems or Life Technologies; also produced in-house
T2 sequence (looked up): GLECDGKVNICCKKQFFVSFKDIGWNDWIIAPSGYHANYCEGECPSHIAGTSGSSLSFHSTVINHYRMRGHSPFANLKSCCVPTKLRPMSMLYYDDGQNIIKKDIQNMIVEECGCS

[4] = target: T3, Human Cerberus-hIgg-Fc (human, UniProt O95813 18-267); settings: both partners purified
T3 construct: signal peptide in the construct; also called Cerberus-Fc; full-length Cerberus-Fc; source: CHO cells, purified from conditioned medium (Protein A, SEC); not shown: Fc (human IgG1), C-terminal, kept
T3 sequence (looked up): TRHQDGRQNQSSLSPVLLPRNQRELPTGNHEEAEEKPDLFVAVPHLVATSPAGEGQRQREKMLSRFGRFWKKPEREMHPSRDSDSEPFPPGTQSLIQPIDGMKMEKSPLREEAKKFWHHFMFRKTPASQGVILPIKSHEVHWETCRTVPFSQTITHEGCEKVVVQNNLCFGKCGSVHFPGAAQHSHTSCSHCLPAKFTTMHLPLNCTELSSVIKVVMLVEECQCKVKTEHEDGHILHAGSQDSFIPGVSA

[5] = target: T4, BMPRII-Fc (human, UniProt Q13873 27-150); settings: both partners purified
T4 construct: type II receptor BMPRII, human, extracellular domain-Fc fusion; Bought protein; source: bought: R&D Biosystems or Life Technologies
T4 sequence (looked up): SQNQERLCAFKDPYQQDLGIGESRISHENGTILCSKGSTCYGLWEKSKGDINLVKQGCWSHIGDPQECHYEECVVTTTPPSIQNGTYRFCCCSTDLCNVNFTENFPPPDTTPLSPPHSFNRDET

[6] = target: T5, Cripto-1-Fc (human, UniProt P13385 31-151); settings: both partners purified
T5 construct: signal peptide in the construct; Cripto1 (1-151), amplicon from cDNA (Thermo Scientific) fused to the hIgg1-Fc domain by PCR; source: CHO cells, purified from conditioned medium (Protein A, SEC)
T5 sequence (looked up): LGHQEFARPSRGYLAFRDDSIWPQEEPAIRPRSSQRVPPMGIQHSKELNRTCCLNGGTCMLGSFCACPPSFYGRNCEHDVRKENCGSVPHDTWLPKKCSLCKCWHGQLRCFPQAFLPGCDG

[7] = target: T3, Human Cerberus-hIgg-Fc; settings: both partners purified; remark: listed apart in the source
[8] = target: T6, human Cryptic-hIgg-Fc (human, UniProt P0CG37 26-158); settings: both partners purified
T6 construct: signal peptide in the construct; human Cryptic (1-158), joined to human IgG1 Fc by a 22 amino acid linker with a TEV site, a glycine/serine rich region and a FLAG-tag; Synthetic gene from GeneArt; also called Cryptic-Fc; source: CHO cells, purified from conditioned medium (Protein A, SEC)
T6 sequence (P0CG37 26-158): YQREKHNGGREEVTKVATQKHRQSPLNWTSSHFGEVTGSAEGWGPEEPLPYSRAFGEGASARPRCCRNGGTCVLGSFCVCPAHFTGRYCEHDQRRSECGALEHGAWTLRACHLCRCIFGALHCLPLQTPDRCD

Binder	Kd [2]	koff [2]	kon [2]	Kd [3]	koff [3]	kon [3]	Kd [7]	koff [7]	kon [7]	other results
Recombinant BMP-2, P12643 283-396 (ligand) QAKHKQRKRLKSSCKRHPLYVDFSDVGWNDWIVAPPGYHAFYCHGECPFPLADHLNSTNHAIVQTLVNSVNSKIPKACCVPTELSAISMLYLDENEKVVLKNYQDMVVEGCGCR	–	–	–	–	–	–	–	–	–	Kd [1]: 3000 nM; koff [1]: 0.072 s⁻¹; kon [1]: 24000 M⁻¹ s⁻¹
human ALK4-hIgg-Fc (Fc fusion, UniProt P36896 24-110, looked up, signal peptide in the construct; extracellular domain of human ALK4 (1-110), joined to human IgG1 Fc by a 22 amino acid linker with a TEV site, a glycine/serine rich region and a FLAG-tag; Synthetic gene from GeneArt; also called ALK4-Fc; source: CHO cells, purified) SGPRGVQALLCACTSCLQANYTCETDGACMVSIFNLDGMEHHVRTCIPKVELVPAGKPFYCLSSEDLRNTHCCYTDYCNRIDLRVPS	~15 nM	~0.00032 s⁻¹	~46000 M⁻¹ s⁻¹	2.4 nM	0.00048 s⁻¹	200000 M⁻¹ s⁻¹	–	–	–	–
B1	–	–	–	–	–	–	1.1 nM	1.4e-05 s⁻¹	13000 M⁻¹ s⁻¹	Kd [4]: 1 nM; Kd [5]: 0.149 nM; koff [5]: 4.6e-05 s⁻¹; kon [5]: 310000 M⁻¹ s⁻¹; Kd [6]: 16 nM; koff [6]: 0.00026 s⁻¹; kon [6]: 10000 M⁻¹ s⁻¹; Kd [8]: 2000 nM; koff [8]: 0.001 s⁻¹; kon [8]: 550 M⁻¹ s⁻¹
human ACTRIIB-hIgg-Fc (Fc fusion, UniProt Q13705 19-120, looked up, signal peptide in the construct; extracellular domain of human ActRIIB (1-120), joined to human IgG1 Fc by a 22 amino acid linker with a TEV site, a glycine/serine rich region and a FLAG-tag; Synthetic gene from GeneArt; also called ACTRIIB-Fc; source: CHO cells, purified from conditioned medium (Protein A, SEC)) SGRGEAETRECIYYNANWELERTNQSGLERCEGEQDKRLHCYASWRNSSGTIELVKKGCWLDDFNCYDRQECVATEENPQVYFCCCEGNFCNERFTHLPEAG	~10 nM	~0.00049 s⁻¹	~49000 M⁻¹ s⁻¹	0.018 nM	2.7e-05 s⁻¹	1.5e+06 M⁻¹ s⁻¹	–	–	–	–
Recombinant GDF-11 (ligand, human, UniProt O95390 299-407, looked up, GDF-11, recombinant; source: bought: R&D Biosystems or Life Technologies) NLGLDCDEHSSESRCCRYPLTVDFEAFGWDWIIAPKRYKANYCSGQCEYMFMQKYPHTHLVQQANPRGSAGPCCTPTKMSPINMLYFNDKQQIIYGKIPGMVVDRCGCS	–	–	–	–	–	–	5800 nM	0.014 s⁻¹	1200 M⁻¹ s⁻¹	–
